Data taken from US20260152527A1 (SIGHTSTREAM BIOTHERAPEUTICS, published 2026).
Positions of bridges follow the written chain, without caps; N, C: chain ends. Non-standard residues stand in square brackets, D forms with d. *: point of attachment. Benzoyl(3,5-(OH)2) = O=C(c1cc(O)cc(O)c1)*; NMeW = CN[C@@H](Cc1c[nH]c2ccccc12)C(=O)O; Lys(N3) = [N-]=[N+]=NCCCC[C@H](N)C(=O)O; Phe(4-NH2) = Nc1ccc(C[C@H](N)C(=O)O)cc1; NMeH = CN[C@@H](Cc1c[nH]cn1)C(=O)O; NMeR = CN[C@@H](CCCNC(=N)N)C(=O)O; NMeF = CN[C@@H](Cc1ccccc1)C(=O)O; dNMeF = CN[C@H](Cc1ccccc1)C(=O)O; Nle = CCCC[C@H](N)C(=O)O; Pra = C#CC[C@H](N)C(=O)O

B1: KR-036 (peptide)
peptide: Ac-[Nle]EHFRWGKC-NH2
modifications: not fully specified (bridges); printed as -Cyclo(-Ac-Nle-Glu-His-Phe-Arg-Trp-Gly-Lys-Cys)-NH2; also: cyclo(...) including Ac, ring type and places not given here
B2: KR-035 (peptide)
peptide: Ac-[Nle]EHFRWGK-NH2
SMILES: CCCC[C@H](NC(C)=O)C(=O)N[C@@H](CCC(=O)O)C(=O)N[C@@H](Cc1c[nH]cn1)C(=O)N[C@@H](Cc1ccccc1)C(=O)N[C@@H](CCCNC(=N)N)C(=O)N[C@@H](Cc1c[nH]c2ccccc12)C(=O)NCC(=O)N[C@@H](CCCCN)C(N)=O
B3: KR-053 (peptide)
peptide: {Benzoyl(3,5-(OH)2)}-[Nle][Lys(N3)]H[dF]RW[Pra]K-NH2
modifications: triazole 2-7; not fully specified; printed as HyBA-Nle-[Lys(N3)-His-DPhe-Arg-Trp-Pra]-Lys-NH2
B4: KR-011 (peptide)
peptide: {CH2CO}-EHFRWC-NH2
modifications: thioether N-6
SMILES: N=C(N)NCCC[C@@H]1NC(=O)[C@H](Cc2ccccc2)NC(=O)[C@H](Cc2c[nH]cn2)NC(=O)[C@H](CCC(=O)O)NC(=O)CSC[C@@H](C(N)=O)NC(=O)[C@H](Cc2c[nH]c3ccccc23)NC1=O
B5: KR-012 (peptide)
peptide: Ac-EHFRWGC-NH2
modifications: bridge N-7; not fully specified (bridges); printed as Cyclo(-Ac-Glu-His-Phe-Arg-Trp-Gly-Cys)-NH2

Molecular target: human recombinant MC5R (CHO-K1/Ga15 stable cell line, GenScript) (human, UniProt P33032 1-325)
Assay: cell-based or functional assay

Chain of human recombinant MC5R (CHO-K1/Ga15 stable cell line, GenScript) (P33032 whole entry): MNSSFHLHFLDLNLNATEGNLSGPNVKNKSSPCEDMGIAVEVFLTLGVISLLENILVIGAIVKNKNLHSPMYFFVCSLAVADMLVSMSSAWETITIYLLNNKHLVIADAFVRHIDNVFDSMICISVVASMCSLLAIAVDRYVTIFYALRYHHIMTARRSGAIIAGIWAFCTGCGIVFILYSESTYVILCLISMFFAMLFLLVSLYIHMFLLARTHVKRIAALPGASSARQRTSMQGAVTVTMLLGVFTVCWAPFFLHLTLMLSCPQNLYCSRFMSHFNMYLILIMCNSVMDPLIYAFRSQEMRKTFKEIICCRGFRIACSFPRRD

Binder | MC5R IC50 [nM]
Ac-SYSMEHFRWGKP-NH2 [KR-005] | 79.8
Ac-YSMEHFRWGKPV-NH2 [KR-001] | 84.4
Ac-[Nle][Lys(N3)]H[dF][NMeR][NMeW][Pra]-NH2 (triazole 2-7) [KR-050] | 234
Ac-MEHFRWGKPV-NH2 [KR-003] | 315
Ac-SYSME[NMeH]FRWGKPV-NH2 [KR-021] | 225
B1 | 289
Ac-[Nle][Lys(N3)]H[dNMeF]RW[Pra]-NH2 (triazole 2-7) [KR-044] | 2300
B2 | 404
Ac-[Nle][Lys(N3)][Phe(4-NH2)][dF]RW[Pra]-NH2 (triazole 2-7) [KR-047] | 41.9
Ac-SYSMEH[dNMeF]RWGKPV-NH2 [KR-025] | 1080
Ac-SYSMEH[NMeF]RWGKPV-NH2 [KR-022] | 698
Ac-[Nle][Lys(N3)][NMeH][dF][NMeR]W[Pra]-NH2 (triazole 2-7; not fully specified) [KR-052] | 195
B3 | 120
Ac-[Nle][Lys(N3)]H[dF]RW[Pra]K-NH2 (triazole 2-7) [KR-037] | 106

Molecular target: human recombinant MC1R (CHO-K1 stable cell line, GenScript) (human, UniProt Q01726 1-317)
Assay: cell-based or functional assay

Chain of human recombinant MC1R (CHO-K1 stable cell line, GenScript) (Q01726 whole entry): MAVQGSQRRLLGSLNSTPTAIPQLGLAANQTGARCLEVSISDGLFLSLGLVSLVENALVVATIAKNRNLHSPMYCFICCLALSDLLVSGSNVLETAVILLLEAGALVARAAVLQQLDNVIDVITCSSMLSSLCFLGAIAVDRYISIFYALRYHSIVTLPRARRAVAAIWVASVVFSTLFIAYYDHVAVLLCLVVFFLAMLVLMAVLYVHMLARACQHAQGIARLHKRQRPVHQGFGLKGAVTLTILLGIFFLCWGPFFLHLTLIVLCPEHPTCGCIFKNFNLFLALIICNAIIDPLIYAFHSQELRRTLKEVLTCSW

Binder | MC1R IC50 [nM]
B4 | 128
B5 | 20
Ac-SYSMEHFR[NMeW]GKPV-NH2 [KR-024] | 0.88
Ac-SYSMEHFRWGKP-NH2 [KR-005] | 0.093
Ac-YSMEHFRWGKPV-NH2 [KR-001] | 0.061
Ac-[Nle][Lys(N3)]H[dF][NMeR][NMeW][Pra]-NH2 (triazole 2-7) [KR-050] | 0.081
Ac-MEHFRWGKPV-NH2 [KR-003] | 0.13
B1 | 0.88
Ac-[Nle][Lys(N3)]H[dNMeF]RW[Pra]-NH2 (triazole 2-7) [KR-044] | > 50
B2 | 0.36
Ac-[Nle][Lys(N3)][Phe(4-NH2)][dF]RW[Pra]-NH2 (triazole 2-7) [KR-047] | > 50
Ac-SYSMEH[dNMeF]RWGKPV-NH2 [KR-025] | 17.8
Ac-SYSMEH[NMeF]RWGKPV-NH2 [KR-022] | > 200
Ac-[Nle][Lys(N3)][NMeH][dF][NMeR]W[Pra]-NH2 (triazole 2-7; not fully specified) [KR-052] | 2.68
B3 | 0.0089
Ac-[Nle][Lys(N3)]H[dF]RW[Pra]K-NH2 (triazole 2-7) [KR-037] | 0.024

Molecular target: human recombinant MC4R (CHO-K1/Gα15 stable cell line, GenScript) (human, UniProt P32245 1-332)
Assay: cell-based or functional assay

Chain of human recombinant MC4R (CHO-K1/Gα15 stable cell line, GenScript) (P32245 whole entry): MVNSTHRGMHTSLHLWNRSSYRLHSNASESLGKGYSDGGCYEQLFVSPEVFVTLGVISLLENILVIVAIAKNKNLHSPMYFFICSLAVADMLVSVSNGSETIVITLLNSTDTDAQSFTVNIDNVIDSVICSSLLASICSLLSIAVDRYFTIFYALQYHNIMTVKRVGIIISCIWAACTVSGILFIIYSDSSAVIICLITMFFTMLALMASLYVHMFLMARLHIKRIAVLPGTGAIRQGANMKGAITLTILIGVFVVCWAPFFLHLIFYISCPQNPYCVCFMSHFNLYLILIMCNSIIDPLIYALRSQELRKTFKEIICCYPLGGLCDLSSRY

Binder | MC4R IC50 [nM]
B4 | 104
B5 | 16
Ac-SYSMEHFRWGKP-NH2 [KR-005] | 67
Ac-YSMEHFRWGKPV-NH2 [KR-001] | 87.6
Ac-[Nle][Lys(N3)]H[dF][NMeR][NMeW][Pra]-NH2 (triazole 2-7) [KR-050] | 242
Ac-MEHFRWGKPV-NH2 [KR-003] | 40.5
B1 | 40.6
Ac-[Nle][Lys(N3)]H[dNMeF]RW[Pra]-NH2 (triazole 2-7) [KR-044] | 238
B2 | 59.6
Ac-[Nle][Lys(N3)][Phe(4-NH2)][dF]RW[Pra]-NH2 (triazole 2-7) [KR-047] | 17.9
Ac-[Nle][Lys(N3)][NMeH][dF][NMeR]W[Pra]-NH2 (triazole 2-7; not fully specified) [KR-052] | 122
B3 | 39.8
Ac-[Nle][Lys(N3)]H[dF]RW[Pra]K-NH2 (triazole 2-7) [KR-037] | 35

Molecular target: human recombinant MC3R (CHO-K1/Gα15 stable cell line, GenScript) (human, UniProt P41968 1-323)
Assay: cell-based or functional assay

Chain of human recombinant MC3R (CHO-K1/Gα15 stable cell line, GenScript) (P41968 whole entry): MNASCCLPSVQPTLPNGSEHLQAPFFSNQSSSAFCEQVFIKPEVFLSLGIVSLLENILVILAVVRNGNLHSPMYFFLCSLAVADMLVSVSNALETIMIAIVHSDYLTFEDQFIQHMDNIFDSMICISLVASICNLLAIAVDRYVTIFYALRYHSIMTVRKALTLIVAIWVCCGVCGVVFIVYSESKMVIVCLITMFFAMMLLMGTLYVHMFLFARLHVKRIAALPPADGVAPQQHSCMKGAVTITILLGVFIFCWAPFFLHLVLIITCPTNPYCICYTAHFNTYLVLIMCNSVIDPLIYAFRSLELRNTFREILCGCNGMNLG

Binder | MC3R IC50 [nM]
B4 | > 50000
B5 | 5570
Ac-SYSMEHFR[NMeW]GKPV-NH2 [KR-024] | 515
Ac-SYSMEHFRWGKP-NH2 [KR-005] | 149
Ac-YSMEHFRWGKPV-NH2 [KR-001] | 199
Ac-[Nle][Lys(N3)]H[dF][NMeR][NMeW][Pra]-NH2 (triazole 2-7) [KR-050] | 4480
Ac-MEHFRWGKPV-NH2 [KR-003] | 289
Ac-SYSME[NMeH]FRWGKPV-NH2 [KR-021] | 445
B1 | 328
Ac-[Nle][Lys(N3)]H[dNMeF]RW[Pra]-NH2 (triazole 2-7) [KR-044] | > 50000
B2 | 276
Ac-[Nle][Lys(N3)][Phe(4-NH2)][dF]RW[Pra]-NH2 (triazole 2-7) [KR-047] | 80.9
Ac-SYSMEH[dNMeF]RWGKPV-NH2 [KR-025] | > 50000
Ac-SYSMEH[NMeF]RWGKPV-NH2 [KR-022] | > 50000
Ac-[Nle][Lys(N3)][NMeH][dF][NMeR]W[Pra]-NH2 (triazole 2-7; not fully specified) [KR-052] | > 50000
B3 | 78.1
Ac-[Nle][Lys(N3)]H[dF]RW[Pra]K-NH2 (triazole 2-7) [KR-037] | 62.9
